Where “and” joins values, the source holds several entries; their conditions need not be identical. Equal entries are not always repeated. Each block holds one binder with its values, some of them ahead of it.
B4: p66CH2CB WT (N-terminal domains CH2 and CB of p66Shc, residues 1-150) (domain or fragment, UniProt P29353-1 1-150, looked up)
chain: MDLLPPKPKYNPLRNESLSSLEEGASGSTPPEELPSPSASSLGPILPPLPGDDSPTTLCSFFPRMSNLRLANPAGGRPGSKGEPGRAADDGEGIVGAAMPDSGPLPLLQDMNKLSGGGGRRTRVEGGQLGGEEWTRHGSFVNKPTRGWLH
notes: p66Shc (largest polypeptide of the shcA locus), residues 1-150 (CH2 and CB domains); Exists as a reduced dimer and an oxidised, disulfide-bridged tetramer; used as a mixture or as isolated states; also called p66Shc N-terminal domain; source: E. coli BL21(DE3)Rosetta2, purified (Talon resin, size exclusion on superose 12)

Experiments:
[1] = molecular target: B4; assay: native gel or EMSA; BN-PAGE of purified recombinant proteins incubated for 1 hour at room temperature (20 μg p66CH2CB with 40 μg Prx1 WT or 20 μg Prx1-Cys83Ser); bands cut out and separated in a second, denaturing SDS-PAGE dimension; conditions: both partners purified
[2] = molecular target: the molecule itself; assay: native gel or EMSA; BN-PAGE; 15 μg p66CH2CB with 30 μg decameric Prx1-Cys52Ser and 5/10/20 μg Trx1 in the presence of 3 mM EDTA
[3] = molecular target: the molecule itself; assay: native gel or EMSA; BN-PAGE of purified recombinant proteins incubated for 1 hour at room temperature (20 μg p66CH2CB with 40 μg Prx1 WT or 20 μg Prx1-Cys83Ser); bands cut out and separated in a second, denaturing SDS-PAGE dimension
[4] = molecular target: the molecule itself; assay: SEC; oligomeric states separated on a superose 12 column in 20 mM Tris pH 7.8 + 150 mM NaCl

stoichiometry N [1]: 1
B1: Peroxiredoxin 1 (Prx1) WT, recombinant (enzyme, mouse, UniProt P35700 1-199, looked up)
chain: MSSGNAKIGYPAPNFKATAVMPDGQFKDISLSEYKGKYVVFFFYPLDFTFVCPTEIIAFSDRADEFKKLNCQVIGASVDSHFCHLAWINTPKKQGGLGPMNIPLISDPKRTIAQDYGVLKADEGISFRGLFIIDDKGILRQITINDLPVGRSVDEIIRLVQAFQFTDKHGEVCPAGWKPGSDTIKPDVNKSKEYFSKQK
notes: Peroxiredoxin 1, gene PCR-amplified from mouse colon cDNA, cloned into pET151/D-Topo; Mainly a decamer (five dimers) on the BN-gel; also called decameric Prx1; source: E. coli BL21(DE3)Rosetta2, purified (Talon resin, size exclusion on superose 12); copies: 10

B2: Prx1-Cys52Ser (enzyme, mouse, UniProt P35700 1-199, looked up)
chain: MSSGNAKIGYPAPNFKATAVMPDGQFKDISLSEYKGKYVVFFFYPLDFTFVSPTEIIAFSDRADEFKKLNCQVIGASVDSHFCHLAWINTPKKQGGLGPMNIPLISDPKRTIAQDYGVLKADEGISFRGLFIIDDKGILRQITINDLPVGRSVDEIIRLVQAFQFTDKHGEVCPAGWKPGSDTIKPDVNKSKEYFSKQK
notes: Peroxiredoxin 1 from mouse colon cDNA in pET151/D-Topo, Cys52Ser (peroxidasic cysteine); also called Prx1-Cys52Ser active site mutant; source: E. coli BL21(DE3)Rosetta2, purified (Talon resin, size exclusion on superose 12); copies: 10
stoichiometry N [2]: 10

B3: Prx1-Cys83Ser (enzyme, mouse, UniProt P35700 1-199, looked up)
chain: MSSGNAKIGYPAPNFKATAVMPDGQFKDISLSEYKGKYVVFFFYPLDFTFVCPTEIIAFSDRADEFKKLNCQVIGASVDSHFSHLAWINTPKKQGGLGPMNIPLISDPKRTIAQDYGVLKADEGISFRGLFIIDDKGILRQITINDLPVGRSVDEIIRLVQAFQFTDKHGEVCPAGWKPGSDTIKPDVNKSKEYFSKQK
notes: Peroxiredoxin 1 from mouse colon cDNA in pET151/D-Topo, Cys83Ser; Constitutively dimeric; also called Cys83Ser regulatory mutant; dimeric Prx1-Cys83Ser mutant; source: E. coli BL21(DE3)Rosetta2, purified (Talon resin, size exclusion on superose 12)
stoichiometry N [3]: 2

Binder: B4
stoichiometry N [4]: 2 | stoichiometry N [3]: 4

B5: p66CH2CB-Ser36Asp (domain or fragment, UniProt P29353 1-150, looked up)
chain: MDLLPPKPKYNPLRNESLSSLEEGASGSTPPEELPDPSASSLGPILPPLPGDDSPTTLCSFFPRMSNLRLANPAGGRPGSKGEPGRAADDGEGIVGAAMPDSGPLPLLQDMNKLSGGGGRRTRVEGGQLGGEEWTRHGSFVNKPTRGWLH
notes: p66Shc, residues 1-150 (CH2 and CB domains), Ser36Asp phosphomimetic; Dimer and tetramer forms were both used; also called Ser36Asp mutant; p66CH2CB-Ser36Asp mutant simulating Ser36 phosphorylation; source: E. coli BL21(DE3)Rosetta2, purified (Talon resin, size exclusion on superose 12)
stoichiometry N [4]: 2 and 4

From article PMC2806001, “Identification of Peroxiredoxin 1 as a novel interaction partner for the lifespan regulator protein p66Shc” (Aging, 2009)
